Patent publication US9550817B2, “Men1 gene for diagnosis and treatment of diabetes” (THE TRUSTEES OF THE UNIVERSITY OF PENNSYLVANIA, priority 2006, dated 2017)

Target: T1, menin (Homo sapiens, UniProt O00255)
T1 construct: made in house; host or cells: E. coli
T1 sequence (O00255 1-610): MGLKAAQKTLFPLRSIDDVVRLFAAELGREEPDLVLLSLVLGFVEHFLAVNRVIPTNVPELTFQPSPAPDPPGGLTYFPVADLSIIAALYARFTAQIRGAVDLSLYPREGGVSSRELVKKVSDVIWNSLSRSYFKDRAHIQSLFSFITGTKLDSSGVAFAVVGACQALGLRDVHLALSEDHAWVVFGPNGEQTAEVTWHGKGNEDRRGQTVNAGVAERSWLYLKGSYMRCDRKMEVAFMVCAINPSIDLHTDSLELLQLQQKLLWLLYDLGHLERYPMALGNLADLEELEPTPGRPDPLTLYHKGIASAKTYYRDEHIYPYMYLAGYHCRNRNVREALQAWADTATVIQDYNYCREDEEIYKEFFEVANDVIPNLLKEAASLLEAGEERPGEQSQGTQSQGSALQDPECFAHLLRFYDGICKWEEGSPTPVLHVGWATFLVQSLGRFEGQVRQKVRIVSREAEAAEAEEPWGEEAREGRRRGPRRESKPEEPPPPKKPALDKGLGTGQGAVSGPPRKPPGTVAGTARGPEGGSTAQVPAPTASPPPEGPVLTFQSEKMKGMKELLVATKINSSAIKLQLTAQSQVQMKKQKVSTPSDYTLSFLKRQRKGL
Assay: Pull-down of menin by biotinylated peptides on streptavidin-agarose beads, Western blot with anti-menin antibody
Format: binding
Settings: menin expressed in and purified from E. coli
Method: Biotinylated peptides were synthesized at the Peptide synthesis facility at Yale University, and loaded to streptavidin-agraose beads (Invitrogen, Inc), and incubated with menin expressed in and purified from E. coli. After multiple washings, the beads were analyzed via Western blot analysis using an anti-menin antibody.
Biotinylated peptides were synthesized, loaded to streptavidin-agraose beads (Invitrogen Inc), and incubated with menin expressed in and purified from E. coli. After multiple washings, the beads were analyzed via Western blot analysis using an anti-menin antibody. […] Especially, the peptide designated the sequence […] (SEQ ID No. 7).

**Q.** “MAHSCRWRFPGSGSCRWRFP (Human) [SEQ ID No. 7, short synthetic peptide from the N-terminus of MLL]” was tested. Which “binding of peptide to menin in vitro (FIG. 12)” value did it give?
**A.** able to react with Men1
